This data set deals with Saccharomyces cerevisiae. The data set is described as follows: transcriptional activation domain activity (GFP:mCherry ratio, weighted mean of sorted bins, harmonized to initial dataset scale) (arbitrary fluorescence ratio units); higher = stronger transcriptional activation. To be noted: beta-estradiol 1 µM; induction time 4 h. The method, boiled down: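 Activation activity, the read-weighted mean of bin median fluorescence averaged across barcodes, was linearly mapped onto the scale of the initial dataset. It was measured for barcoded protein tiles fused to an estradiol-inducible synthetic transcription factor at URA3 in GFP-reporter yeast diploids. Cultures diluted 1:5 into SC with 1 uM beta-estradiol were held 4 hours at 30 °C, sorted into 8 bins by GFP:mCherry ratio, and barcode-sequenced, and tiles under 50 reads were discarded.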
Regarding “DIPGLAPTYLDNQAFLMADTVDIPGDYNLFFDNFDISNFFLPATVYDSELPVS”, the “transcriptional activation domain activity” value stood at 137000. In the case of “AQKVKNESDTDERPAPVKKGRKAATSKVKDESEDEAPAPAPAKRGRRAAAVKA”, the “transcriptional activation domain activity” value came to 47500. The result for “GLRDNVIENRQGKKGAGKAAAAGGAGAAAANTNAATGGKAAKAAKAAAAGGSG” reads 48900; that for “DHLLKSLYMLIHTTLKCIKNLEFLGFYLFNSGFSSVFDECVFPYIRTLRCHQP”, 65000; that for “KLWAKRRAIYGNVFGFPGGVAWAMLVARICQLYPNAVSATIVGKFFNILTKWN”, 33200. The result for “MMLVSSRSFLYWYGVSLTLLLLSLEFVWSFLLFFTWLVTLSLFPFLSSVSHCH” reads 60200.

Consider “MFVHWAAVFCLFFFCLAIIHPYLPVAFFFCSIYYKPFFLRLPRFLFGFWFFFS”, for which the “transcriptional activation domain activity” value is 47700. With “MFCLRSWLPLLFIPTNAPPVFVFLFFACTFFLSRPCVYCSFLLLILFFTSCYW”, the “transcriptional activation domain activity” value was 52700.

As to “IEAEEAEEIGVEHLLRDIASSSGAPSSTLLTTQSLSTRVAAQLNALQGLRARL”, the “transcriptional activation domain activity” value came out at 66900. Turning to “VTLVKRVDLFWYFVPNSVCWSCVVERSIALDVAERYLGRETNATPPWIRGLLP”, the “transcriptional activation domain activity” value was found to be 32500. The same measure for “SGADEFDVGASIEPTFATPRLTRTSETGTSESTSRRPSERSRSRARVLGLPVG”: 38500; for “GQGPLRSSYSMAYDSPVDRAMNTPLQQQEGLKAELPHDFLFQHGTDDTMYNLT”: 36100; for “LQRNILWGMLIFVLAQGLSSTIVVAGFLCTPLSQVWTTPTAIGGPTCINILTF”: 61900. On to “VPLCVAVLLLLAPHPSILHVLLNYHYLTLHAPGYFVVHLLIIYALYFLAFSSL”, for which the “transcriptional activation domain activity” value came out at 34000. With “SLSSSRVLGEHGNGPDGEGGFVHVSYRISLDEENELQMRVRPSERGGGEGVDG”, the “transcriptional activation domain activity” value amounted to 39200. For the sequence “MHCSLPSGLSFGCQYALVHLLFVRRISIWGLLILQIFLGTRVFYHVFILRVVR”, the “transcriptional activation domain activity” value was found to be 62700. In the case of “WRYGKCQVCGYVMINYPGPNQRHHCLEGRVRTVYNTVTFPCYLEVHVVQMIWL”, the “transcriptional activation domain activity” value was 60800. On to “MYIPPQSSVFLDIDSWGLIPVTCHLWLVMRWMYEAVMLPYLSQDGRHIVKFRY”, for which the “transcriptional activation domain activity” value is 40700. As to “TEQEAIQKKRKKRKIREDNGISTVLFALEEVCAIILHRMQHRNGVPHVTTLVF”, the “transcriptional activation domain activity” value came to 52100. Consider “KKEAAAAKKEPAKRKKTKADEEDKESAEGTESDEESKPKKKKAAPKKKGAATA”, for which the “transcriptional activation domain activity” value was determined as 20600. The same measure for “EAGAEEAAAGAGGRQEAASVEEAAREAARRRQQAEAGRGRRRRQPAGAEEAAE”: 33300; for “HAEPGTGWACVKHTSDCTAVKKASGIPGRNFHRRPKYSVVVSAGERTWKAKQC”: 52400; for “VNYHLAMRYFMRYLFTQDLLPLLLAAKEQCQQAHVMCVQGAGFGLRIRTDDIG”: 45000.

Regarding “EVLHLFIHFSFIFALYMLCFFLPAKHLCNLLTWYKYLFFLLSIMLFFLILIGT”, the “transcriptional activation domain activity” value came to 64200.

Regarding “RQRAGASGGEEARGRREGRREGGEGEGEGKTEEGTNERDGREGERREGRRRGG”, the “transcriptional activation domain activity” value stood at 37700. For “ALLNGQCGGANYTGPTVCVCGLNIIQGFMRIRKCSSLYMIVLALKLIFITFFS”, the “transcriptional activation domain activity” value was found to be 90200. On to “LFINRLMWLVRSYLTTFFCKSCPGLAKKLIKYVTIQQLPPDVSWDPHFKPRYN”, for which the “transcriptional activation domain activity” value amounted to 67600. For “ISLVYGVRLAIRSSIFVTVRTHLARSIRYQSGLRAKQPIPTRLFLLYFLQLKY”, the “transcriptional activation domain activity” value is 56900. With “DSDEEDESELETDSESETGGIPIHESLSGAKSEDADKNERTIFIGNITVTAVQ”, the “transcriptional activation domain activity” value stood at 46400. As for “VGLAIYCVSQHLMIPSATELICMYPVVNSTIGLITYYYLIFSFLFGIMIITYC”, the “transcriptional activation domain activity” value was determined as 64600. For the sequence “MLSIYNLQTRGIHPPNVVVGMAIFCGGLAHIFLLLFRSWNVGIICSMSCHILL”, the “transcriptional activation domain activity” value stood at 66200. “FCFYPFQKQWVMFSLTKDSLQLAHKFNFTRVPLPQRLRAVYLYARFAWRIFLL”: the “transcriptional activation domain activity” value is 33000.

Regarding “RSDRDRRRKQSPESRGRRHRSRSKDARREKRKRADSEGEQSARRSRPSEHHRR”, the “transcriptional activation domain activity” value came out at 19100.

Turning to “ADMILGFFFKNFVWTFILFWYQLFCQFNGTMVFDYSLVTLYNLVFTSLPIAFL”, the “transcriptional activation domain activity” value came out at 65600.

Consider “PLGTVGLAKLVFVKMFGGAKRITITLISAALLMMAVRFFSIAHPFLLADNRHY”, for which the “transcriptional activation domain activity” value came to 62400. With “EGGEKGGHGGKEGGEGGEGGEGGEEGGHGGHWGHKKHGHGGGKQKGGWGHHGY”, the “transcriptional activation domain activity” value turned out to be 45300. Consider “RRERKERKRARKEKDRRKRRHRRSQTDSDEEDRERHRDSRRKRSRSASRERRE”, for which the “transcriptional activation domain activity” value was determined as 20000. Consider “RKDKSKDTKERDVSKRQRGSSRNKGTKAKGTQTKQNEDEEDIVKTRKSKAKDK”, for which the “transcriptional activation domain activity” value amounted to 15200. The result for “RPYLLLLHLLCSFFFFESISIILAIAFQLLLIRASSHMIIRMLLQVYCFLSMR” reads 75900; that for “SSSSQTSTSASVLLVFGSDERYVKAAGDLLKSRLNVKGGGKGTRWSGKYTGVW”, 31200. For “MGLRTTPDYQKVEFTVTDIGLILKTLWICADLITFLFPLQRLVFHALVLLFSF”, the “transcriptional activation domain activity” value amounted to 62300.

As to “FFFVCYILQTLGMIAYMIMIVYDYYQNYLWFRGVAVVQSSTFIGQWYVFFIWF”, the “transcriptional activation domain activity” value worked out at 57700. For the sequence “EGEDALTLPLIISSQALLVVPPEKIVALPLQQMLSLVVRAITQAFVHGAFISR”, the “transcriptional activation domain activity” value was found to be 67100.

In the case of “MDATAKKAVEQPKRRACDECRGRKLACSKEVDGCARCKREGIKCVYSAQKRMG”, the “transcriptional activation domain activity” value was 10500. Take “IGWFFPFWIVLLLPLDMASSLYEGCDMLCRRPFTWVSQSFLYIAWRTIYWTSF”: the “transcriptional activation domain activity” value turned out to be 59000. In the case of “RYWTFMTFLSIFLSIFACFLWIAVYSLFPTFFFDWELIILYSTMNFWATVVVV”, the “transcriptional activation domain activity” value is 51700. As to “MIVLCASFFYILSSLSLFFFFLTLPIMHFLPFSRLFIFSCFLFPLYLFTSFFL”, the “transcriptional activation domain activity” value was determined as 31000. The same measure for “RISPGFIKKRRSSQTRQDEDHWQRVRELENQSSLYYLPIHEETPFFIDLIPNG”: 76200; for “SIKVTRYLLNLAHCTNDQWFYYIVFFFAELVVYTIMIVAIGSILFQWRFFCLV”: 52100. The result for “LKALQLGCYNYFLLGGSCVSGPVGLLAGIIRQPLVLFYHFFSVALYAIWLRVA” reads 81200; that for “HIDSFLDQMCKVAEGGGFSLSTLADCVILFRDLARIYQEPFSSPFLRLLYAYT”, 65300. For “KHERDDEKERKHRKHDKPSKDKDGEDDDGEGRRHKKHRKHKERGSDDEDEHRK”, the “transcriptional activation domain activity” value is 22500. Regarding “GAGGAAGGAGAGAGTAATGGNAAGGKASATKPAAGAKSSPAAAAAAAGTRLTG”, the “transcriptional activation domain activity” value came to 7150. The result for “QLTAQQLIENAIESGVVDLETLDLPPFLSLDGLPPASSSAAVAASEQIDICPS” reads 133000; that for “QGIEPLLPPKWGMLVGEARDLLVLFGALGEQERWNFWTTGCSYMTAMVLLTAN”, 53000. “SSPKKKGASKSDSAGRGNTAAAAKGRGKAKANAKGSPKKGGGGSARKRRKTAE”: the “transcriptional activation domain activity” value was found to be 41100.

On to “LEGPPLEKTGSDILQQVCNVLPSFEQSSKIITDFFNTELETNEVSEVLDKTKI”, for which the “transcriptional activation domain activity” value came to 49900.

As to “NWYFLGTTMYFLYGESVIYYFKHIVLVDKVLLPFATHHRFISFMLYVIGFVFF”, the “transcriptional activation domain activity” value came out at 59100. The result for “GTAHHHDPNDPKRPRACEACRGLKVRCEPDPTNPNPDGPCKRCAKAGRACLVT” reads less than 6570; that for “MDSRPGSFATGVFRAQPVDNTPRKIQKRNRPPVSCLLCRTRKVKCNRQQPCER”, 33500. For the sequence “VYPENYETASVNTERDMELLVGHFDFMAKEAFLADSISLCSTEEELERRLDTP”, the “transcriptional activation domain activity” value stood at 102000. With “MVEGCLLHFQFSFPPFFFCFFFGHLGGFVNFCDSLIFKVLRALGLVMNVFTII”, the “transcriptional activation domain activity” value came out at 70500.

Regarding “RNVEDCAATNGSLVPISMPGGKREENDRRVPRANVSKVIILGSGGLSIGQAGE”, the “transcriptional activation domain activity” value was found to be 44500. As to “SDNGTENNGETKKRYDPKDPLRPRRKKARRACYACQRAHLTCGDERPCQRCIK”, the “transcriptional activation domain activity” value came to 16400. Take “ALSSASSALSPLSGDPITTTETNKSYPLDSEQSLLEPDKTEEDAINQSKESNM”: the “transcriptional activation domain activity” value came out at 15300. “WIQCTIPGYVSNFAYGLASGFTVTLNTAVLMEIVFHSKSYRILILSLFTTLYV”: the “transcriptional activation domain activity” value was 61400. The same measure for “MHGTGVFFGCLGIHIFFFLSSLLFHVDIFVIRDIFFNFLLFFFIFFLRILYSM”: 42700; for “MPEETVTEPRKKRAKIMSACSECRRKKTKCNGEQPCRNCQKSSVQCVYPAATQ”: 36500. The result for “SFSVLNLNLGKIENDGNESNEDYLGNEKFYLNEILPDEESKLRWKRVFENSEN” reads 52600. Regarding “MDLGSAVPAPRRRIRDRTSQACNRCRATKIRCDNQAPACSPCRAKKLECIRDP”, the “transcriptional activation domain activity” value was 37600. The same measure for “EVYFGLVNRRFRELLLVHERCFDLKVPNYRLMSILLAYLLRHTMVTPKVKYPE”: 29700; for “EKAKPAEEPKPAAEPAPAEEKAAEPETQPESKPAEELSSPTEEPAPIEEAKPA”: 15800; for “MWLIWLIWLLALLVDLFSFSVLFFFSLSLFLSFFWFFFFSFFQSFFPFLAVSF”: 66900. On to “MYCFIILYMYILLLFFSRSVYFSLFFFFFCLHFYSIFFFFICSLFIYLFIYLF”, for which the “transcriptional activation domain activity” value was 63500.

(Values after the supplement of paper PMC12636428.)
